One assay has as its target T1, Vγ9Vδ2+ cells (Homo sapiens, UniProt A0JD36).
T1 construct: endogenous in cells; host or cells: healthy donor-derived, expanded Vγ9Vδ2-T cell lines
T1 sequence (A0JD36 20-115): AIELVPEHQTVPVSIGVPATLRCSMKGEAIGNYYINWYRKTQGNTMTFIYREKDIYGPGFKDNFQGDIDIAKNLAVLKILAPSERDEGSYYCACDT
The experiment in a line: Bispecific VHH binding to Vγ9Vδ2-T cell lines, flow cytometry, non-linear regression. Conditions: FIGS. 6A and B, read-out: apparent Kd. Here is the method:
The CLL-derived cell line CII was grown in complete IMDM. Purified Vγ9Vδ2-T cell lines were generated as described previously (de Bruin et al. (2017), Oncoimmunology 7(1): e1375641). In short, Vδ2^+-T cells were isolated from healthy donor (HD) PBMCs using FITC-conjugated anti-Vδ2 TCR (2257030, Sony, San Jose, Calif.) in combination with anti-mouse IgG microbeads (Miltenyi Biotec, Bergisch Gladbach, Germany) and cultured weekly with irradiated feeder mix consisting of PBMCs from 2 HDs, JY cells, IL-7 (10 U/mL), IL-15 (10 ng/mL, R&D Systems) and phytohaemagglutinin (PHA; R30852801, Thermo Fisher Scientific).
Purity of Vγ9Vδ2-T cell lines was maintained at >90%.
VHH binding was tested as described in Example 6.
After 48 hours, cells were analyzed by flow cytometry as described in Example 2.
(Flow cytometry measures light scatter and fluorescence of single cells or particles in a stream.)

The test system of assay [1] is Vγ9Vδ2-T cells from CLL patients. The experiment in a line: Cytokine and degranulation assay: autologous Vγ9Vδ2-T cells from CLL patients. The assay is classed as cell-based, human. Conditions: 10 nM, overnight with autologous CLL cells. The method, then:
PBMCs from CLL patients were obtained, cryopreserved and thawed as described in Example 3.
CLL PBMCs were partially depleted of CD19^+ CLL cells using magnetic beads (130-050-301, Miltenyi Biotec. ±50% of the PBMCs were CD19^+ after CD19 depletion). PBMCs were then cultured overnight with V19S76K-5C8 (10 nM) or medium control in the presence of Brefeldin A, GolgiStop and anti-CD107a to measure cytokine production and degranulation as described in Example 11. In contrast to Example 11, surface staining included PE-conjugated anti-Vγ9-TCR (2256535, Sony) and FITC-conjugated goat-anti-Ilama IgG-heavy and light chain antibodies (A160-100F, Bethyl Laboratories Inc.)

The test system of another assay is MM.1s cells. The format is in vivo, mouse. The method, then: FIG. 18: The bispecific […] VHH prolongs survival in vivo. Immunodeficient NSG mice were irradiated on day −1 and grafted (i.v.) with 2.5*10^6 MM.1s cells on day 0. Mice received PBS or human Vγ9Vδ2-T cells (1*10^7 cells; both i.v.) on days 7, 14 and 21 followed by PBS or V19S76K-5C8 (VHH; 5 mg/kg; both i.p.) twice weekly starting on day 9. (A) Schematic overview of treatment schedule. (B) Kaplan-Meier analyses of mouse survival (control: n=6; V19S76K-5C8 (VHH): n=6, Vγ9Vδ2-T cells: n=8, Vγ9Vδ2-T cells+V19S76K-5C8 (VHH): n=8). CD40 expression on MM.1s cells (human CD45^+CD38^+ cells) in the (C) bone marrow (BM) and (D) plasmacytomas at the time of sacrifice. (E) Body weight after 7 weeks of treatment relative to individual body weight at time of tumor injection. **P<0.01, ***P<0.001. Data are presented as mean and SD. (B: Mantel-Cox logrank test followed by Holm-Sidak's post hoc test, C: one-way ANOVA followed by Dunnett's post hoc test compared to control mice, D: unpaired t-test).
To study the effects of the bispecific VHH on tumor growth in vivo, immunodeficient NSG mice were injected with cells of MM.1s, a human multiple myeloma cell line. The tumor cells were allowed to grow out and engraft for 1 week before mice received the first of three weekly i.v. injections with either human Vγ9Vδ2-T cells or PBS, followed by twice weekly i.p. injections with V19S76K-5C8 or PBS (FIG. 18A).

In another assay the test system is Vγ9Vδ2-T cells. The experiment in a line: Cytokine and degranulation assay: Vγ9Vδ2-T cell lines with CD40+ CII cells. The assay is classed as cell-based, human. Particulars: for degranulation of Vγ9Vδ2-T cells (CD107a): FIG. 10A. The method, then: CD40^+ CII cells and Vγ9Vδ2-T cells were grown as described in Example 7.
Vγ9Vδ2-T cell lines were incubated with V19S76K-5C8 or medium control for 30 minutes at 37° C. Subsequently, Vγ9Vδ2-T cells were cocultured with CII cells for 4 hours in a 1:1 ratio in the presence of Brefeldin A (10 μg/mL; B7651, Merck), GolgiStop (554724) and PECy7-conjugated anti-CD107a (561348, both BD Biosciences). Cells were then washed and surface staining was performed with Fixable Viability Dye eFluor506 (65-0866-14), AF700-conjugated anti-CD3 (56-0038-82, both Thermo Fisher Scientific) and FITC-conjugated anti-Vγ9-TCR (IM1463, Beckman Coulter) antibodies. Cytofix/Cytoperm reagent (554722) was used for detection of intracellular cytokines with BUV395-conjugated anti-IFN-γ (563563), […] anti-TNF-α (563418, all BD Biosciences) and PE/Dazzle594-conjugated anti-IL-2 (500343, Biolegend).
Samples were measured on an LSRFortessa cytometer (BD Biosciences) and analyzed with Flowjo MacV10.

Assay [2] has as its system CD40-transfected HEK293T cells. The experiment in a line: Cytotoxicity assay: CD40-transfected HEK293T target cells with Vγ9Vδ2-T cells. The assay is classed as cell-based, human. The method, then:
HEK293T cells, either wildtype (WT) or transfected with human CD40, were grown as described in Example 2. Vγ9Vδ2-T cells were grown as described in Example 7.
The cytotoxicity experiment, viability measurement and flow cytometry were performed as described in Example 12.

B1: V19S76K-5C8: tag-less bispecific anti-CD40-anti-Vγ9Vδ2-TCR VHH, SEQ ID NO:23 (protein)
VHH: QVQLQESGGGLVQAGGSLRLSCAASGRTFGRSAMGWFRQAPGKEREFVAAIGTRGGSTKYADSVKGRFTISTDNAKNTVYLQMDSLKPEDTAVYRCAVRGPGYPSAAIFQDEYHYWGQGTQVTVSSGGGGSEVQLVESGGGLVQAGGSLRLSCAASGRPFSNYAMGWFRQAPGKEREFVAAISWSGGSTSYADSVKGRFTISRDNAKNTVYLQMNSPKPEDTAIYYCAAQFSGADYGFGRLGIRGYEYDYWGQGTQVTVSS
modifications: antibody sequence
In the case of B1, the Kd with Vγ9Vδ2+ cells is 1.2 nM. Besides, in assay [1] (FIG. 15A-C), the “production of IFN-γ, TNF-α and IL-2 by Vγ9Vδ2-T cells from CLL patients” value is recorded as “produced the cytokines IFN-γ”. Also, the “Vγ9Vδ2-T cell degranulation (CD107a expression)” value in assay [1] (FIG. 15D) is given as “induced Vγ9Vδ2-T cell degranulation”. In the assay on MM.1s cells (V19S76K-5C8 5 mg/kg i.p. twice weekly plus human Vγ9Vδ2-T cells i.v., control group 47 days, FIG. 18B), the median overall survival is recorded as 80 days. Besides, the overall survival entry in the assay on MM.1s cells (V19S76K-5C8 alone, without Vγ9Vδ2-T cells, FIG. 18B) is on record as “Neither V19S76K-5C8 alone or the Vγ9Vδ2-T cells alone significantly improved overall survival”. In addition, the “overall survival versus control group” value in the assay with MM.1s cells (V19S76K-5C8 plus Vγ9Vδ2-T cells, FIG. 18B) is given as “lived significantly longer”. Also, the “CD40 expression on malignant cells in the bone marrow versus control mice” value in the assay with MM.1s cells (V19S76K-5C8 plus Vγ9Vδ2-T cells, at time of sacrifice, FIG. 18C) was “significantly lower”. Moreover, the “CD40 expression on malignant plasma cells in plasmacytomas” value in the assay on MM.1s cells (V19S76K-5C8 plus Vγ9Vδ2-T cells, at time of sacrifice, FIG. 18D) was “A similar trend was observed”. In addition, the “degranulation of Vγ9Vδ2-T cells (CD107a)” value is listed as “did not induce this level of degranulation” in the assay with Vγ9Vδ2-T cells (CD40+ CII cells not present) and “the large majority of Vγ9Vδ2-T cells degranulated” in the assay on Vγ9Vδ2-T cells (with CD40+ CII cells, 1:1 ratio, 4 hours). The “IFN-γ, TNF-α and IL-2 production by Vγ9Vδ2-T cells” value in the assay with Vγ9Vδ2-T cells (with or without CD40+ CII cells, FIG. 10B-D) is “A similar pattern was observed”. The “lysis of CD40-transfected HEK293T cells” value in assay [2] (overnight with Vγ9Vδ2-T cells, 1:1 ratio, FIG. 12) is listed as “strongly enhanced”. Besides, the “lysis of either WT or CD40-transfected HEK293T cells” value in assay [2] (without Vγ9Vδ2-T cells) is given as “did not induce lysis”.

The record behind these values is patent US20220135694A1, “NOVEL CD40-BINDING ANTIBODIES” (LAVA THERAPEUTICS B.V., priority 2019, published 2022).
